Experiment: soluble on expression in E. coli; label from the status in PepcDB or PDB records
With “MSLNDFRPNPSLLLETSWEVCNKQGGIYTVLTSRAHEMMKRHDGRIIFIGPLLTEQEDLPTDFENTVPAILEDWHRDAAPSLDLRYVCGSWRTPGSPPVVLVDFEPLHAQKATLYYEMWEHFGIQSDKGYGDYDEASLFGIAAAQTMHSLCEYLCPEDQPAIGIFNEWMLGMGLLYSKRKTPRLKTLFLTHATTTGRSIAGNNKALYAYMPGYNGDQMAAELGVEAKHGIEKAAAHQSDTFATVSELTAKECRQLLERDPMVLPNGFEPNFVPQGEEYERRRAEARKRLLHVAEHLTGKQLPADTLLIATSGRYEYRNKGIDLFIDAASEAGRSGKLRTPTLAFILVPAWVAGARADLQYLLNHPDPTEYKEKPLPYPFLTHWLHDIQEQTISKRLDESAGSAGEVSFIFVPCYLNRKDGIFGLGYYDLLIGMDLTVFPSYYEPWGYTPLESIAFGIPTVTTDLSGFGLWAMQERGSRNDFSTGVAVIKRTDDNYAEAVQAIADLLYRWPAESTDRTACRLAAMQTASHAEWRLFYNRYEEAYSELLSRDEGHHHHHH” the “soluble on expression in E. coli” value was “soluble”.
In the case of “MSLNEAGIVLLPKSRQLPALSMIDQNGAAVALDGLKDQWTLMFFGYTFCPDICPTTLAQIKQIRSELPTAAVERMRVVLVSVDPNRDTPQQLKEYLSYFDPQYIGLTAPVADIQKLANSVSIPFIPADTSKPNYFVDHSGNLALIGPDGTQRGFIRAPLNNQKLVKQLPRLLERDEGHHHHHH”, the “soluble on expression in E. coli” value is reported as “soluble”.
In the case of “MSLNEITVSLDVIIKNKNVMVSSLSVAKAFDRQHSHILRSIEDIKRDWDSLIQSKNGLNRNIIPLKSQGNKQVIFTDYFKESEYIAENGRLVKFFEMNRNGFMLLANSFNGKRILPIKLAFIERFDELEHITLEQAKETENRKNLNQAIKESPHFKPFYYSRFSDFLCQLITHNKYKTVKKLREDKGYYGKQFSKIPLKSMLDSEEDLKRLQKLENSIIAWLEIDYSFREIKAFLTKEKAQPLPTKEGHHHHHH”, the “soluble on expression in E. coli” value is reported as “not soluble”.
For “MSLNFVAMDFETANQHPASACSLALVLVRESKIIDRFYTVINPQMAFDAQQVKVHDITAEDVAGAPTMAEVWPKIQPLFQPGMLVAAHNARFDCNVMKQSLARYGIAEPHYLVLDSLKVSRELEPGLDNYQLNTVSDLLGVELWHHHNALSDSEACAGILLKEEEKRGSELLKKFVYQVEGHHHHHH”, the “soluble on expression in E. coli” value was “not soluble”.
In the case of “MSLNGDYQLTIDKMLESGVSSNPNQIINYSGKKTFTYKEFRERVYRLAKALISIGVKKGDTVAVIDWDTYVYLEAYFAVPMIGAVLHTVNVRYPQDLIYYTMDHAEDKYVIVRDEFVPILSKNKEAFYFIKGWIIYSEYGNVPDELSPKYIYDELMSKNYDIELPEISENDLATTFYTSGTTGIPKGVQFTHRQIVLHAISSGLALSDRPISLTADDVIMPLVPMFHVHAWGVPYMTIMSGRQYVLPGRYDFDHIIDLIAQENITVIAMVPSILYMIVTNPNVGKIAGRKIRAIIGGGALPEGLQKAAEKLGIMAISGYGLSETAPILTLATYNSDVKKLPLEEQKKYHLKTGIPIPLVQLRVIDDKWNDVPRDEKTIGEIVVRAPWLTSVYVKNKEGTEALWKGGWMHTGDLAVMDKFGYIKIVDREKDAVKSGGEFIPSLILEDAISACPGVVENAVVGKPHEKWGERPVAFYTGTAKPEEIRKCLEDIVRQGRIAKFWIPDDFINVKEFVKTSTGKIDKKVLREMLKKEGHHHHHH”, the “soluble on expression in E. coli” value is reported as “soluble”.
With “MSLNHHPIIYLVDHQKDARAALSKLLSPLDVTIQCFASAESFMRQQISDDAIGMIIEAHLEDKKDSGIELLETLVKRGFHLPTIVMASSSDIPTAVRAMRASAADFIEKPFIEHVLVHDVQQIINGAKEGHHHHHH” the “soluble on expression in E. coli” value was “soluble”.
With “MSLNHVRPWRNIHRRKSRQIMVGNVPVGGDAPISVQTMTNTITADAPATIAQVLRAAEAGADIVRVSVPDEASTRALKEIVAASPVPIVADIHFHYKRAIEAAEAGAACLRINPGNIGDASRVREVIKAARDHGCSMRIGVNAGSLEKHLLDKYGEPCPEAMVESGLDHIKILQDNDFHEFKISVKASDVFLAAAAYQALADATDAPIHLGITEAGGLTAGTVKSAVGLGNLLWSGIGDTLRVSLSADPVEEVKVGYEILKSLGLRHRGVTIISCPSCARQGFDVIKTVAELEDRLAHVTTSMSLSIIGCVVNGPGEALMTDIGFTGGGNGSGMVYLAGKQAHKLGSERMIDEIVSMVESRAAEIEAEKLAAAEAAE” the “soluble on expression in E. coli” value was “not soluble”.
In the case of “MSLNIFDIAKQNQEKAWQVIKNTNIIQIWEDAGAKINLVGSLRTGLLMKHRDIDFHIYSSPLNLTDSFQAMARLAENPSIKRIECANLLHTAEACIEWHAWYQNEENELWQMDMIHIREGSRYDGYFEKVAQRISEIMTDEIRETILRLKYETPETEKIIGVEYYQAVIRDGVRDYSGFKEWRKQHPVTGVVEWMPEGHHHHHH”, the “soluble on expression in E. coli” value is reported as “soluble”.

— the DeepSol protein solubility set
